This series can be described thus: yeast display, Sf9 membrane polyspecificity reagent, FACS + sequencing; frameworks hold sequencing errors. Summed up: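 Galactose-induced (36–48 hours) yeast carrying a synthetic nanobody display library were exposed to 10% biotinylated, detergent-solubilized Sf9 membrane reagent at 4 °C for 1 hour. FACS followed streptavidin microbead enrichment, using low and high (top ~1%) gates for expression (anti-HA) and reagent binding (streptavidin). Colony PCR, MiSeq 2 × 250 sequencing and CDR-length filtering followed. Labels for polyreactivity reflect the gate of origin.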
With “QVQLVESGGGLVQAGGSLRVSCAASGLTFKYNALGWYIQAPGKERELVASISSGSTNYADSVKGRFTISRDNAKNSVYLEMNSLKPEDTSVYYCAASVSRGKRFRYGYVFKMDYWGQGTQLTVSS”, the “polyreactivity (PSR sort gate)” value is reported as “low polyreactivity”. In the case of “QVQLVESGGGLVQAGGSLRVSCAASGNIFYYYAKGWSRQAPGKERELDAAISKRGGSTYYADSVKGRFTISRDIAKNTVYLQMNSLKTEVTAVYYCAADGGYADYDYWGQGTQVTVSS” it was “high polyreactivity”; in that of “QVQLVESGGGLVQAGGSLRVSCAASGRIFFRNAMGWYRQAPGKESELVAAITRGGGSTYYADSVKGRFTISRDNATNTVYLQMNSLKPEDTEVYYCAAGAGYSLYSAYDYWGQGTQVTVSS”, “low polyreactivity”; in that of “QVQLVESGGGLVQAGGSLRVSCAASGRIFTQYATGWYRQAPAKEREMVAAINASDGSTYADSVKGRFTISRDNAKNSVYVQMNSLNPEDSAVYYCNVTGGPYDFTRWSDFDHWGQGTQVTVSS”, “low polyreactivity”. On to “QVQLVESGGGLVQAGGSLRVSCAASGRILNPNAMGWYRQAPGKERELVADISSGGSTYADSVKGRFTISRDNAKNTVYLQMNSLKPEDTAVYYCAKPGYEEFYREYDSWGQGTQVNVSS”, for which the “polyreactivity (PSR sort gate)” value is recorded as “low polyreactivity”.

In the case of “QVQLVESGGGLVQAGGSLRVSCAASGRTFKKYTMGLYRQAAGKERELVPVITSGGSTYYADSVKGRFTISRDNAKNTVYLQMNSLKPEDTAVYYWAADLYYNSYGRYGRYYYWGQGTQVTVSS”, the “polyreactivity (PSR sort gate)” value is “high polyreactivity”. In the case of “QVQLVESGGGLVQAGGSLRVSCAASGRTFKYYARGWYRQAPGKARELVAAISGSGGSTYYADSVKGRFTISRDNAKNTVYLQMNSLKPEDTAVYYCAAAGKETSRNAYDSWGQGTQETVSS”, the “polyreactivity (PSR sort gate)” value was “high polyreactivity”. In the case of “QVQLVESGGGLVQAGGSLRVSCAASGRTFRGYSMGWSRPAPGKERELVAAISWRGGTTYYADSVKGRFTISRDNAKNTVYLQMNSLKPEDTAVYYCAARRYRISKTSGYWGQGTQVTVSS”, the “polyreactivity (PSR sort gate)” value is recorded as “high polyreactivity”. In the case of “QVQLVESGGGLVQAGGSLRVSCAASGRTFRYYEMGWYRQAPGKERELVAAISWSGGSTYYADSVKGRFTISRDNAKNSVYLQMNSLKPEDTAVYYCGAPKPIYSYPTYYYWGQGTQVTVSS” it was “high polyreactivity”; in that of “QVQLVESGGGLVQAGGSLRVSCAASGRTFYFNAMGWYRQAPGKERELVAVISWSGGRTYYADSVKGRFTISRDNAKNTVYLLMNSLKPEDTAVYYCAADYQSGGSRYDYWGQGTQVTVSS”, “high polyreactivity”; in that of “QVQLVESGGGLVQAGGSLRVSCAASGSIFCPYTMGWNRQAPGKERELVAAITRSGGSTYYADSVKGRFTISRDNGKNTVYLQMNSLKPEDTAVFYCAARGQAYSGDRMYYWGQGTQVTVSS”, “high polyreactivity”. In the case of “QVQLVESGGGLVQAGGSLRVSCAASGSTIITNAMGWYRQATGKERELVAAITYSTGATYYADSVKGRFTISRDNAKNTVYLQMNSQKPEDTACYYCAALLYFFMIDYWGQGTQETVSS” it was “low polyreactivity”.

For the sequence “QVQLVESGGGLVQAGGSLRVSCAASGTIFRRYAMGWYRQAPGKERELVATISSCTTTNYADSVKGRFTISRDNAKNTVYLQMNSLKPEDTAVYYCAADDYYEFYWGQGTQVTVSS”, the “polyreactivity (PSR sort gate)” value is reported as “high polyreactivity”. “QVQLVESGGGLVQAGGSLRVSCASSGRTFSRNAMGWYRQAPGKEMELVATISRRGGSTNYADSVKGRFTISRDNAKNTVYLQMNSMKQEDTAVYYCAAGYRVRDDKVYGIVGPMDYWGQGTQVNVSS”: the “polyreactivity (PSR sort gate)” value was “high polyreactivity”. With “QVQLVESGGGLVQAGGSLRVSFAASGLTFFQYGMGWYRQAPGKERELVASITRSRGRTNYADSVKGRFTISRDNAKYTVYLQMNSLKPEDTAVYYCAAYYYGSSAYGYGYNYWGQGTQVTVSS”, the “polyreactivity (PSR sort gate)” value is “high polyreactivity”. Regarding “QVQLVESGGGLVQAGGSLRVTCAASGNIFGYYAMGWYRQAPGKERELDAAISSGGTTSYADSVKGRFTISRDNAKNTVYLQLNSLKPEDTAVYYCAARDWYDGFYYWGQGTQVTVSS”, the “polyreactivity (PSR sort gate)” value is “low polyreactivity”. For “QVQLVESGGGLVQAGGSLRYSCAASGSTSAWYAMGWYRQAPGKERELVAAITESGGDTYYADSVKGRFTISRDNAKNTVYLQMNSLKPEDTAVYYCNARGSARKSVPYPLEYWGQGTQVTVSS”, the “polyreactivity (PSR sort gate)” value is listed as “high polyreactivity”.

For the sequence “QVQLVESGGGLVQAGGSLSISCAASGLSFSVNAMGWYRPAPGKEREFVAAISSSGGRTYYADSVKGRFTISRDHAKNTVYLQMNSLKPEYTAGYYCATAQGSRVDYWGQGTQVTLSS”, the “polyreactivity (PSR sort gate)” value is on record as “high polyreactivity”. Consider “QVQLVESGGGLVQAGGSLSLICAASGFIYYTMGWYRQAPGKEWELVAAISRSGGSTYYADSVKGRFTISRDNAKNTVYLQMNSLKPEDTAVYYCAARRPYRDGYDYWGQGTQVTVSS”, for which the “polyreactivity (PSR sort gate)” value was “high polyreactivity”. Then “QVQLVESGGGLVQAGGSLSLICAASGSTFSQYFMGLYRQAPGKDRELVAGISSRGTSTYYADSVKGRFTISRDNAQNTFYLQMNSLKPEDTAVFYCNRGKLYNTYDYWGQGTQVNVSS”, with “low polyreactivity”. Then “QVQLVESGGGLVQAGGSLSLICAASGSTILYNTMGWYRQAPGKERELVATITSRGDRTYYADSVKGRFTISRDNAKNTVYLQMNSLKPDDTAVYYCNAYGGNYPQSYRYYYWGQGTQVTVSS”, with “low polyreactivity”; and “QVQLVESGGGLVQAGGSLSLICAAYGSTLGVYAMGWYIQAPGKERELVAAISSGGSTTYADSVKGRFTISRDNAKNTVYLQMNSLKPEDTAVYYCAADRYEGYVTWYWWGAYNYDYWGQGTQVTVSS”, with “high polyreactivity”; and “QVQLVESGGGLVQAGGSLSLICADSGSSFYGYAMGWYRQAPGKERELVAAITSSGGSTYYADSVKGRFTISRDNAKNTVYLQMNSLKPEDTAVYYCAARGSLGGWGLRYYWGQGTQVTVSS”, with “high polyreactivity”. As to “QVQLVESGGGLVQAGGSLSLMCAASGRTLRSYAMGWYRQAPGKEMEFVASISRSGGSTYYADSVKGRFTISRDNAKNTVYLQMNSLKPEDTAVYYCAAGVRYPYRYYYWGQGTQVTVSS”, the “polyreactivity (PSR sort gate)” value is reported as “high polyreactivity”.

In the case of “QVQLVESGGGLVQAGGSLSLRCASYGSISFINAMGWYRQAPGKEMELVARITWSGGTTYYADSVKGRFTISRDNAKNTVYLQMNSLKPEDTAVYYCAAYIWAPLEGYEYDYWGQGTQVTVSS”, the “polyreactivity (PSR sort gate)” value is listed as “high polyreactivity”.

Take “QVQLVESGGGLVQAGGSLSLSCAASGFIFHYYAMAGYRQAPGKERELVAAISKTVGSTYYADSVKGRFTISRDNAKNTVYLQMNSRKPEDTAVYYCAVGYSRRNTPYDYWGQGTQVTVSS”: the “polyreactivity (PSR sort gate)” value is recorded as “high polyreactivity”. For the sequence “QVQLVESGGGLVQAGGSLSLSCAASGFIFNHYAMRWYRQAPGTETEFVAAISLSGGSTYYAVSVKGRFTISRDNAKKTVYLQRNSLKPEDTAVYYCAASYNGLWHGDYDYWGHGTQVTVSS”, the “polyreactivity (PSR sort gate)” value is “low polyreactivity”.

“QVQLVESGGGLVQAGGSLSLSCAASGFIFRGNGMGWYRQAPGKERELVAAIDSTDSTNYADSVKGRFTISRDNAKNTVYLQMNSLKPEDTAVYYCAAGVSWYGPYDYLWFYAFDYWGQGTQVTVSS”: the “polyreactivity (PSR sort gate)” value is listed as “low polyreactivity”. With “QVQLVESGGGLVQAGGSLSLSCAASGFIITRNAMGWYRQAPGKEWEFVARISRSSGSTYYADSVKGRFTISRDNAKITVYLKMKSLTPDDTAVYYCNTRVAGIYGFGSYDDWGQGTQVTVSS”, the “polyreactivity (PSR sort gate)” value was “high polyreactivity”. In the case of “QVQLVESGGGLVQAGGSLSLSCAASGFTFFYNAMGWYRQAPGKERELVASITVSTSGTDYADSVKGRFTISLDNAKNTVYLQMNSLKPEDTAVYYCATDQVLVYSDLQDTAYYWGQGTQVTVSS” it was “low polyreactivity”.

In the case of “QVQLVESGGGLVQAGGSLSLSCAASGFTFTRYVMGWYRQAPGKERELVAAISINGGRTYYADSVKGSFTNSRDNAKNTVYLQMNSLKPEDTAVYYWAAYKTYGSKYVFVDPGEYYYWGQGTQVTVSS”, the “polyreactivity (PSR sort gate)” value was “high polyreactivity”. In the case of “QVQLVESGGGLVQAGGSLSLSCAASGITFVIYVMGWYRQAPGKERELVAAISWIGGSTYYADSVKGRFTISRDYAKNTVYLQMNSLKPEDTAVYYCATDYVVVVSTGYDYWGQGTQVTVSS” it was “low polyreactivity”; in that of “QVQLVESGGGLVQAGGSLSLSCAASGITLYRYVMGWYRQAPWKERELVADNTGRGTSTYYADSVKGRFTISRDNAKNTVYFQLNSLKPEDTAVYYCNAEYTKTGALVIPYTYYYAEDYWGQATQVTVSS”, “low polyreactivity”.

“QVQLVESGGGLVQAGGSLSLSCAASGLTFDTNAMGWYRQAPGKERELVAAITDSGDSTYYADSVKGRFTISRDNEKNTVYLQMNSLKPEDTAVYYCAARRSNLAWGRRRMYYWGQGTQVTVSS”: the “polyreactivity (PSR sort gate)” value was “high polyreactivity”. Then “QVQLVESGGGLVQAGGSLSLSCAASGNTFYGYAMGWYRQAPGKERELVASITLSGDSTYYADSVKGRFTISRDNAKNTVYLQMNSLKPEDTAVFDCAGVYTYPLGYYHYTYDYWGQGTQVTVSS”, with “low polyreactivity”. For the sequence “QVQLVESGGGLVQAGGSLSLSCAASGRIFSNYAMGWYRQAPGKERELVADISSRGVSTYYADSVKGRFTISRDNAKNPGYLQMKSLKPEDTAVYYCAARGYQRQYYYWGQGTQVTVSS”, the “polyreactivity (PSR sort gate)” value is reported as “high polyreactivity”.

As for “QVQLVESGGGLVQAGGSLSLSCAASGRTFIFYAMGWYRQAPGKERELVAAISSSGSGTYYADSVKGRFTISRDNAKNTVYLQMNSLKPEDTAVYYCAADVVNSRRRPKYGYWGQGTQVTVSS”, the “polyreactivity (PSR sort gate)” value is “low polyreactivity”. In the case of “QVQLVESGGGLVQAGGSLSLSCAASGRTFVPYAMGWDRQAPGKERELVAAISRSGSSTYYADSVKGRFTISRDNAKNTVYLQMNSLKPEDTAVYYCAADPVYYYIGDFNYWGQGTQVTVSS” it was “high polyreactivity”; in that of “QVQLVESGGGLVQAGGSLSLSCAASGRTFWVYAMGWYRQAPGKERELVAAIRRGGITNYADSVKGRFTNSRDNAKNTVYLQMNCLKPEDTALYYCDTDKYGYLTRYYYWGQGTQVTVSS”, “low polyreactivity”; in that of “QVQLVESGGGLVQAGGSLSLSCAASGRTFYVYAMGWYIQAPGKERELVATISRGGSTTYADSVKGLFTISRDNAKNTVYLQMNSLKPEDTAVYYCATELLGGRRTVAYFWGQGSQVTVSS”, “low polyreactivity”.

The record behind these values is the nanobody polyreactivity screen of Harvey et al. (2022).
